The source of these data is PMC3155019, “Dynamics of the Phosphoinositide 3-Kinase p110δ Interaction with p85α and Membranes Reveals Aspects of Regulation Distinct from p110α” (Structure(London, England:1993), 2011).

Non-standard residues stand in square brackets, D forms with d. No end group written: not given here. pY = N[C@@H](Cc1ccc(OP(=O)(O)O)cc1)C(=O)O

This test concerns the target p110δ+p85α nicSH2 complex (human | , UniProt O00329 1-1044; P27986 322-724). Kind of test: cell-based or functional assay.

Chain of p110δ+p85α nicSH2 complex (O00329 whole entry, stated change not applied, chain 1 of 2): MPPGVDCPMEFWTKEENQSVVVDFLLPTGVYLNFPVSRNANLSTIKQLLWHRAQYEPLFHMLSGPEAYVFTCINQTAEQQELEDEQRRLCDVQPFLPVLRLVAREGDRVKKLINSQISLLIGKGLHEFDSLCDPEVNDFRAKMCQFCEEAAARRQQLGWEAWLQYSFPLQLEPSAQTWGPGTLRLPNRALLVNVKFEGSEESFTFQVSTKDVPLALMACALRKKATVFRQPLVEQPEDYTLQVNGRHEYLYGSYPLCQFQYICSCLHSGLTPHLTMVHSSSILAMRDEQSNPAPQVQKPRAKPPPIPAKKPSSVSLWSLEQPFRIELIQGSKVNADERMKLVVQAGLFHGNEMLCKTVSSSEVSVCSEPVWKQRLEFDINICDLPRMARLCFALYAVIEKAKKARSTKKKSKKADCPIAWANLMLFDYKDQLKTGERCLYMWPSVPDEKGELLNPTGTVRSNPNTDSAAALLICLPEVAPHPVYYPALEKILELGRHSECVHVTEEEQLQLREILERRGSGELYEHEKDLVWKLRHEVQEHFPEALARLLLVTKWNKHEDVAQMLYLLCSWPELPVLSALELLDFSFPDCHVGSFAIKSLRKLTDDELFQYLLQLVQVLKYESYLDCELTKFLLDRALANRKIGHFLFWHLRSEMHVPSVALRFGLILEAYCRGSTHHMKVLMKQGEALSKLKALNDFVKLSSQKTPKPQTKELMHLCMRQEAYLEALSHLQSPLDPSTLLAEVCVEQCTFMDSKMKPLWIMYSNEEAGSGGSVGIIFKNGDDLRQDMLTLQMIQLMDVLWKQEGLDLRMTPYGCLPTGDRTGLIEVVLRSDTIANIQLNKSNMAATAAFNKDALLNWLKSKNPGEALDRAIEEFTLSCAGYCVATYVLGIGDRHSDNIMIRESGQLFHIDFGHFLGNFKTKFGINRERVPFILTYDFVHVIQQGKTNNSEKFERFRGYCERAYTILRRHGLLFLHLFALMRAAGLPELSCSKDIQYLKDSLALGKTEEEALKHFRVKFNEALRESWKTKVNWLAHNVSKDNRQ
Chain of p110δ+p85α nicSH2 complex (P27986 322-724, stated change not applied, chain 2 of 2): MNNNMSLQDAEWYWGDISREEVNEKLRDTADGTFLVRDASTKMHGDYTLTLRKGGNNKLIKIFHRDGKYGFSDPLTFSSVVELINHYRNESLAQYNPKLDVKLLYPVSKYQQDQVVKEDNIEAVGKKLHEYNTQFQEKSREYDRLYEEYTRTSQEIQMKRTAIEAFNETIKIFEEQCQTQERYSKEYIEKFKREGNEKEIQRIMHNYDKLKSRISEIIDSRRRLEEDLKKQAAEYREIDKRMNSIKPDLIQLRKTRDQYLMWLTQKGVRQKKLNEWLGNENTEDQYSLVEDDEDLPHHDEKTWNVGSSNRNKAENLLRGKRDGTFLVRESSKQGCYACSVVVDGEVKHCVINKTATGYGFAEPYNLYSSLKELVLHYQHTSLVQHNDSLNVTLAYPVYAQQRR

As to ESDGG[pY]MDMSKDESID[pY]VPMLDMKGDIKYADIE [PDGFR bis-phosphorylated pY peptide (residues 735–767, with pY740 and pY751)], the “activation of the lipid kinase activity of p110δ+nicSH2 by 10 μM PDGFR pY” value was around 13 fold.
